Reference: paper PMC9352346, “Arl15 upregulates the TGFβ family signaling by promoting the assembly of the Smad-complex” (eLife, 2022)

B1: GST-Arl15-AL (natural protein, human, UniProt Q9NXU5 1-204, looked up)
chain: MSDLRITEAFLYMDYLCFRALCCKGPPPARPEYDLVCIGLTGSGKTSLLSKLCSESPDNVVSTTGFSIKAVPFQNAILNVKELGGLDNIRKYWSRYYQGSQGVIFVLDSASSEDDLEAARNELHSALQHPQLCTLPFLILANHQDKPAARSVQEIKKYFELEPLARGKRWILQPCSLDDMDALKDSFSQLINLLEEKDHEAVRM
notes: Arl15, human, A86L; also called bead-immobilized Arl15-AL; GST-Arl15-A86L; source: E. coli BL21, purified (Glutathione Sepharose 4B)
B2: His-Smad2-SE (natural protein, UniProt Q15796 1-467, looked up)
chain: MSSILPFTPPVVKRLLGWKKSAGGSGGAGGGEQNGQEEKWCEKAVKSLVKKLKKTGRLDELEKAITTQNCNTKCVTIPSTCSEIWGLSTPNTIDQWDTTGLYSFSEQTRSLDGRLQVSHRKGLPHVIYCRLWRWPDLHSHHELKAIENCEYAFNLKKDEVCVNPYHYQRVETPVLPPVLVPRHTEILTELPPLDDYTHSIPENTNFPAGIEPQSNYIPETPPPGYISEDGETSDQQLNQSMDTGSPAELSPTTLSPVNHSLDLQPVTYSEPAFWCSIAYYELNQRVGETFHASQPSLTVDGFTDPSNSERFCLGLLSNVNRNATVEMTRRHIGRGVRLYYIGGEVFAECLSDSAIFVQSPNCNQRYGWHPATVCKIPPGCNLKIFNNQEFAALLAQSVNQGFEAVYQLTRMCTIRMSFVKGWGAEYRRQTVTSTPCWIELHLNGPLQWLDKVLTQMGSPSVRCSEME
notes: Smad2 with phosphomimetic mutations S465E/S467E; also called His-Smad2 with S465E/S467E mutations; source: E. coli BL21, purified (nickel-nitrilotriacetic acid agarose)

Target: T1, His-Smad4 (UniProt Q13485 1-552)
T1 construct: Smad4; also called purified His-tagged Smad4; source: E. coli BL21, purified (nickel-nitrilotriacetic acid agarose)
T1 sequence (looked up): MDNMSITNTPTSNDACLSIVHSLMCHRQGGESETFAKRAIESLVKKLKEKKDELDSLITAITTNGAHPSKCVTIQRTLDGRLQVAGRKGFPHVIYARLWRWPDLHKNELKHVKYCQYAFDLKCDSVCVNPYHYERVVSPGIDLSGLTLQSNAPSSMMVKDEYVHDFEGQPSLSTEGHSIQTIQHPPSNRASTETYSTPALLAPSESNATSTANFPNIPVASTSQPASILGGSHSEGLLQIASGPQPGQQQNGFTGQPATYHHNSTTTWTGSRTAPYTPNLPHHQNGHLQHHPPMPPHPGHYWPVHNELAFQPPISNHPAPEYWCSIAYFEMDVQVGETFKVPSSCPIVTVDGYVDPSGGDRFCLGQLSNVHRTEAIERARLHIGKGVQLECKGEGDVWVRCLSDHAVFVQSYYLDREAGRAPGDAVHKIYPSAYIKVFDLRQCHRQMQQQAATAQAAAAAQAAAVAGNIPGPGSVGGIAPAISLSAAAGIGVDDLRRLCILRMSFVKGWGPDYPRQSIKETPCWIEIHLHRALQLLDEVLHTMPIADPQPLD
Experiment: pull-down; bead-immobilized GST-Arl15-AL incubated with purified His-tagged Smads (His-Smad4, His-Smad2-SE, alone or together); immunoblotted against His-tag
Conditions: both partners purified

Row | Binder | binding result
1 | B1 | binds
2 | B2 | binds
